The results in this text go back to PMC3902935.

Data set [1] concerns the target T1, APOBEC3A (A3A) WT (human, UniProt P31941 1-199). Put plainly: EMSA; 20 nM DNA; NMR: 25 mM sodium phosphate pH 6.9, 10 mM DTT, 25 C, 0.074 mM A3A; EMSA: protocol of Byeon et al. (ref 16), buffer not given, 20 nM DNA, 25-100 uM A3A. A general note: A gel shift assay detects complexes by their altered migration in electrophoresis.
For a further data set, the target named is APOBEC3A Y130F (human, UniProt P31941 1-199, Y130F). In words: EMSA; 60 or 80 uM protein; similar to WT; NMR: 25 mM sodium phosphate pH 6.9, 10 mM DTT, 25 C, 0.074 mM A3A; EMSA: protocol of Byeon et al. (ref 16), buffer not given, 20 nM DNA, 25-100 uM A3A.
Sequence of APOBEC3A Y130F (P31941 whole entry Y130F): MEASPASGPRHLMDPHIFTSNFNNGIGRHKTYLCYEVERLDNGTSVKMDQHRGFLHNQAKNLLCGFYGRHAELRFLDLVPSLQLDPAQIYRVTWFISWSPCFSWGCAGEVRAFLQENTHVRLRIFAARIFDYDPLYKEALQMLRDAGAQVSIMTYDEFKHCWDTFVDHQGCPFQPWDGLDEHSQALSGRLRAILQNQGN
The target of a further data set is APOBEC3A D131E (human, UniProt P31941 1-199, D131E). The description is as above.
Sequence of APOBEC3A D131E (P31941 whole entry D131E): as the sequence (P31941 whole entry Y130F) above, with F130Y, D131E counted along it
Another data set concerns the target APOBEC3A E72Q (human, UniProt P31941 1-199, E72Q). The data set is described as above.
In data set [2] the target is T1, APOBEC3A (A3A) WT. Put plainly: NMR titration (1H-15N HSQC); 25 mM sodium phosphate pH 6.9, 10 mM DTT, 25 C; Zn2+ enzyme; NMR: 25 mM sodium phosphate pH 6.9, 10 mM DTT, 25 C, 0.074 mM A3A; EMSA: protocol of Byeon et al. (ref 16), buffer not given, 20 nM DNA, 25-100 uM A3A.

As a reminder, the Kd is the constant that tells how readily two partners part at equilibrium.

T1 sequence (P31941 whole entry): as the sequence (P31941 whole entry Y130F) above, with F130Y counted along it
Sequence of APOBEC3A E72Q (P31941 whole entry E72Q): as the sequence (P31941 whole entry Y130F) above, with E72Q, F130Y counted along it

B1: JL988 80-nt ssDNA (ssDNA)
DNA: ATTATTATTATTATTATTATTATTATTATTATTATTATTATTATTTCATTTATTTATTTATTTATTTATTTATTTATTTA
In the case of B1, the binding result in the data set with APOBEC3A (A3A) WT [1], in the data set with APOBEC3A Y130F, with APOBEC3A D131E and with APOBEC3A E72Q was “binds” throughout.

For the molecule AUUUCAUUU (ssRNA) [JL1181 9-nt ssRNA], in the data set with APOBEC3A (A3A) WT [2], binding was characterised by a dissociation constant (Kd) of 420 ± 70 µM.

B2: JL987 70-nt ssDNA (ssDNA)
DNA: ATTATTATTATTATTATTATTATTATTATTATTATTATTTCATTTATTTATTTATTTATTTATTTATTTA
With B2, the binding result with APOBEC3A (A3A) WT [1] is on record as “binds”.

B3: JL986 60-nt ssDNA (ssDNA)
DNA: ATTATTATTATTATTATTATTATTATTATTATTTCATTTATTTATTTATTTATTTATTTA
On to B3, for which the binding result with APOBEC3A (A3A) WT [1] is “binds”.
